The data set can be described thus: label from the status in PepcDB records.
For the sequence “MRPGQELAGPGLRQPRTGVPRRRHRRLPRRHRPAIVSLPPSYGPSMPDAHPPPSPSKDRSFAARVQTGALVIIAFAVVLALLVQAQFILISLAVSVILFSLTSDAIALVARVRFGPVKIPNWLASSLALLLLAIVLLSLAAVIVSQVNTVLLTALSYSEQAPAAVAAIFSWLGKDAEEAVLSSLRAVEISGYLRTLAAQAGTLMQATVLVILFVGFLFAERVWFPVKLLNLFGNPDRARRVEEIVSSIMHRVNRYLLVKTLVSAITGLLVWGVAMAFGLDLAAPLGMLTFILNFIPSLGSIVATLLIVLVTFVQTVDVSTALSVLALVGVIQFICGNILDPMLMGRALQLSSFGIIISLAFWGAIWGIPGMFLSVPIMVGLMIVCAETEALRPIAVLLSREGLAAPMHPERPAAPPRAEPETETVASRRVGL”, the protein production entry is on record as “failed”.
For the sequence “MRPRRWFAILVCLCCLVTAAWPAEVKGENKKKERLAVVTVDRVNVRQGPGVPYRPLANVHRGETYRLIDIKDGWLKIEWKKNKIGWIAASYAAPVREMEIVQEDRLRLRQEPGLDGRIIGHLAQGDQVIVIKEKGEWKQIVTKKAVGWVAASYLADAESPTGSRQTGVVTADSLNVRVAPSLDAERIGRLLHGERVEIVETKRDWYKIVTRSGLGGWVAAEYIEMKNGQAVGNPEEAVAESASPAAVDLVTIQGNGPRQYVKKWTRTPVQVLAGKTIVLDAGHGGKDGGAESVNGVTEKTLTMETAERLKEKLETYGARVVLTRVNDDYVPLSARVATARLYQADAFISLHYDSAEDEDASGITAYYYDRFADYGLAQSFQGPFSKLSALPFRGLAFGNYYVLRENERPSVLLELGYLSNRSDAEVVATDSYQETVTTAIVNAVRHYFQ”, the protein production entry is recorded as “failed”.
Next, “MRPVGSKYLLEEPLGRGATGTVWRARQRETAGAEAAVAGQPGETVAIKVLKEELASDADIVMRFLRERSVLLRLTHPNIVRVRDLVVEGELLALVMDLIDGPDLHRYLRENGPLTPVAAALLTAQIADALAASHADGVVHRDLKPANVLLKQTGGEMHPMLTDFGIARLADSPGLTRTHEFVGTPAYVAPESAEGRPQTSAVDVYGAGILLYELVTGRPPFGGGSALEVLHQHLSAEPRRPSTVPDPLWTVIERCLRKNPDDRPSAENLARGLRVVAEGIGVHANSAQIGAAENVGALLAPDPAPAQVPGAPDAAYDPNGATSVLPHTSGPAGAADPTAVLPSTGAPDPTAVMPPVPPGQPGAPGQGGPEDPHPWQNQLRAARDRNEQTQVQYLDPNQDPLRRRPQRQVSRPPQQPRQAPQGPPPQQPGYGYPQQQQPQRYATPQPQQPQRYAPPPAPEPQQPRREPRPPRQRSANPMRIPGLGCLKGCLVTVVVLFVAGWLVWELSPLQEWIGTGKGYWDQLTDWFTTVTDWIGDLGGSGGG”: “failed”.
On to “MRQFPPASSTVISVNFEELQAFVGRNPMLSLALVGLTIAIIVTEIARLFRGYRALKPAELTRLINSENALVIDLSPTADFEKGHIAGSRNVALAKFDPAGKLLANAKSSPVVVVCRSGNASAGAAKTLKKAGFEQVYWLEGGIAAWQMAELPLVKGRA”, for which the protein production result is “failed”.
Next, “MRQHGKVSEVTEKKTAVYVDDQQRILIRQLARSWLWRSELPTWLLIVTVYGGWFACVAGWRTLGLFPATLLLIWFTAWYMSLQHELIHGHPTRLAWFNQLLGTLPLAVWYPYGVYRDSHLAHHRNHLLTHPEDDPESYYVTAESWQRFSAWQRRLIHLRNTFWGRLLLAPMMDIIHTLNSALRAFREGDRRAIAMWSLHLLLLTGLLTWMAAQGFSPLWFVLAVSYPALALTKVRSFLEHRAADDPLARSVINEAGLPWRVLFLNLNYHAVHHDLPGVPWYALRQLYLHRQAAYLQRNQGFLVRGYGEWRRHFSRRAVAVNAHPGFGEQAQAGGEHG”: “failed”; “MRQKELETADWQRNLKIAWIGTFFTGASFSIVMPFMALYVEELGVKGAMVEWYAGLSVALSALASALVSPVWGHLADRYGRKPMMIRASMVMTFTMGGLAFVPNVFWMLFLRILNGLFAGYVPNATALIASQAPQQRSGYALGTLSTGLTAGVLIGPLLGGAISEAFGMRGTFLLVGLILFICCLLTIFGLREDFQLIEKVEIMSFSQVFAKIPSKSLLIGLFVTSMIIQISAQSIAPILALYIRYLGQSDNILFYSGLIVSAMGFSSLLSTPYLGRLGDRIGNHRLLLMGLFYSFLLYFLCGFAGSALQLGLLRFAYGFGVGALTPSVNSLLTKMTPKEGISRIFSLNQSFSYIGQVLGPFVGSAVATGLGYRWVFFVTAAIVFGNFVCSLIIFRKSLGVKNIGES”: “failed”.
Regarding “MRQPPILSEALRLFFPLAALHGAVWPFLWIVIGGYALPFANAVPPSQWHAHEMIFGTYGMALAGFLGSAVPEWTDTKAAAGRTLLCLAGLWLPGRLIGFVGADTWSLLAGFFDLAFLLALSVLIGKAMLVRRTTKHLAFLVWLILFAAAETGVRYAWWMGDLEFAVRCLEAALCIFIVLFSLSAARINVVVINLALDPSGETTPYRPHPGRQHMAGAMVTLYMAAKLLFPESDVCAWLALAAGAAFFDRLAEWFIGRAVFRTEVLLLALGNAFAGAGFLALGATRLGFSVTSAAGLHLLSVGALGCAIMAVFIIAGLRHTGRDLKHLPWQAHAAAALMVMAGLTRILPEFDVAAVLSPYHHGLSAILWAASFGIWLQGFLPFMRAPGTDEAGACG”, the protein production result is listed as “failed”.
For the sequence “MRQRKDMPHNRLQTGGMTDEPTDIKAEAKPARTSDLRGFIRLLEERGQLRRIRQPVSLVHEITEIHRRVLADGGPALLFEQPVDHEGKVRKMPLLANLFGTRQRIEWGLGLETGGLPALGQKLTELREPRPPKSMAEAWSKLPLLRAALSMRQRNVSRAPVQEKVLTRDAVDLARLPVQWCWPGEPAPLITWPLVITRSPDDPDDINVGIYRMQVLGPDRVIMRWLAHRGGAHHHRLWQARGLDMPVTVAIGADPATILAAVMPLPDHISELGFSGLLRGAKSRIAKALTVPMPVPANAEIVLEGTVSATETAMEGPYGDHTGYYNSVEAFPVMTLSAITMRRDPIYLSTYTGRPPDEPSVLGEAMLEIFLPLVKRQFAEIVDLWMPPEACSYRVMVASIDKRYPGQAKRVMMGLWSMLPQFSYVKLIILVDPDIDVRSWTDVVWALSTRFDASRDTTIINDTPIDYLDFASPKAGLGGKMGLDATRKLPPETEREWGRVLSMTPDVVAKVDLVWRDLGLGERPLEHHHHHH”, the protein production entry is on record as “failed”.
In the case of “MRRCCGDLAASRGGCEPASRNLTRTRLTFAALGRINRPAEHDREDAMTRQEARDHEPRDQDAALSRRTLVRGLALGAAATMAGPALAQTGPAAPPTTITTPPRDFGPNGAPTTYFWDPDIIAVDPSFDDLAQPNTAIKRLYTGVLWAEGPAWSAQGRYLLWSDIPNNRQMRWSEDDGRISVFRSPSNNSNGNSFDFQGRQLSCEHLTRRVTRYEHDGTATVLCDNYNGKKLNSPNDVVAHPDGSYWFTDPPYGGQLYEGEPDAAGGPSNSGGKLNPRIGQPAGFTPGKRELPTNCYRIDPSGRVDLVVTEEQVPDPNGLCFSPDFKKLYVVSTGKGPGDSGPGGKGEIFVFDVGADNKLSNQKRFSDCTIDGVKCGPDGVRCDVNGNVWASSNAGRAVGYSGVTVWSPEGKLLGRIRLPEVCGNICFGGPKRNRLFMAASQSLYAVFTATQGAGPG” it was “failed”.
For “MRRGSGNPERPSLSRDGLRVPPPCPGKRGPGHFSGYHGGMEGIRRAAQRAAEEFLQAFPMAPGSLFVLGGSTSEVLGERVGTRPSLEAAHAVLEGLLPPLLERGVHVAVQACEHLNRALVVERETARAFGLEEVAVFPHPKAGGALATAAFLRFRDPVMVESLKAQAHGGMDIGGVLIGMHLRPVAVPLRLSVRKIGEAVLLAAKTRPKLVGGARAVYTREEMLKKLEEFLPKPP”, the protein production entry is given as “not failed”.
As to “MRRLNRKNNEALKKLNDRQRKVLYCIVREYIENKKPVSSQRVLEVSNIEFSSATIRNDMKKLEYLGYIYQPHTSAGRIPTDKGLRFYYEEMLKISKETSEADLAVETFKSMPLADPEKVLFLAGNLLARLTEGYVLIERPNTRDLKILRVMLIPVSEDYLIFSILTEFGVSKVTPIKTQERLNWEEIERQLNFLLRGRTVGEVLMGKIESLKGSGFLRLIESLIGETVERYLDAGLENLLKDETLTLEDIRNLLEEVKDQKFLESLVGEGITVRIGREIGRKKLEKFAVFSGKYFKGESPIGSVYLFTSKVTKYDRNHRVFEYILNRLSEYFTSTSRR”, the protein production result was “not failed”.
With “MRRSAYMTDTKICKKGCDHDTSHRENEQRCGRGSFWMHDPDLIFSELKLKAGEFFLDMGCGPGDYSIWASKIVGNSGMVYALDKWQELIDNLTEKADLEGIKNIKGMVSDIARPLPIEESCIDVYFISTVLHSLDLAKDSDVIFSEIHRVLKPDGRLAIVECKKEEMSFGPPLHMRLSPEELENLIAKYGFEKINLVDLGYNYMIQFRKSYQK”, the protein production result is given as “failed”.
Next, “MRRSGAASRPASRGARTAYIGAMSRSTPPATTRIVCIRHGESTFNAHHEATGRDPGHIDARLSERGHAQVAAARAALRAIPFELVVTSPLTRALQTTAGIFSDHPARPDVLVEVLHRECQESSCDIGRAASVLAQEFPAFKVGHLPETWWYADGEAGPDGWHVEPRTLFDQRVSGFRDWLRARPERTIGVVGHCTFFYHLTGRWLANCEALDVDLTAEPRPRAYG”: “failed”.
In the case of “MRRTNTFAVRPLSDDDERLLLDLLDASASLWNELNYERRQQFFDGESVWDTADYRKQYVGVLGSATAQQVIRKNKSAWQSFFAARENGEDTAPPGYWGNEDDGRELRTFIRHDLYTLDTGERSRVEIPVGQDLKDEYGLGYHDRLRLEVAGDPKWDGEQGRLEIQYGETDDTFRAFQPVTVPDSRQDSPLASHEAALDVGANNLVACTTTTGEQYLYEGRGLFAHFRETTREIARLQSKLREGRYSSQRIRRLYRKRTRRRDHAQDALVRDLMERLYAEGVDTVYVGDLTDVLSTHWCAEVNAKTHQFWAFRAFIERLSHTAEEYGITVEVRSEADTTRTCPACGEQDDTDRDGDVFRCPCGHEAHADLCASRTFLERQTGKPVGSMARPVRLKWDDHNWSEIPHSPERARPNEKRTNQSTDSQDGKLASVGTA”, the protein production result is “failed”.
Next, “MRRVTVPTAPPAYADIGYPMSMLPIKSSRAVSGIQQKQEVLPGMDTPSNSMRPVADDNIDHTSHTPNGVASAFILEATVNVISGPKVLMKQIPIWLPLGIADQKTYSFDSTTAAIMLASYTITHFGKANNPLVRVNRLGQGIPDHPLRLLRMGNQAFLQEFVLPPVQLPQYFTFDLTALKLVTQPLPAATWTDETPSNLSGALRPGLSFHPKLRPVLLPGKTGKKGHVSDLTAPDKIQTIVNLMQDFKIVPIDPAKSIIGIEVPELLVHKLTGKKMSQKNGQPIIPVLLPKYIGLDPISPGDLTMVITPDYDDCHSPASCSYLSEK”: “not failed”.
